Reference: article PMC5091643, “Dimer/monomer status and in vivo function of salt‐bridge mutants of the plant UV‐B photoreceptor UVR8” (The Plant Journal, 2016)
Numbering of substitutions follows the chain as printed. Numbers in names are those of the source. Values belong to the binder of their own block, whether it stands above or below them.

How the values were obtained:
[1] = target: T1, UV … LOCUS8 (UVR8), purified wild-type (Arabidopsis thaliana), Q9FN03; assay: SEC; purified proteins not exposed to UV-B; Superdex 200 HR10/30, 50 mM Tris pH 7.5, 150 mM NaCl, 1 mM β-ME, 0.02% sodium azide, 4°C; dimer to monomers; conditions: remark: other sources report otherwise
T1 chain: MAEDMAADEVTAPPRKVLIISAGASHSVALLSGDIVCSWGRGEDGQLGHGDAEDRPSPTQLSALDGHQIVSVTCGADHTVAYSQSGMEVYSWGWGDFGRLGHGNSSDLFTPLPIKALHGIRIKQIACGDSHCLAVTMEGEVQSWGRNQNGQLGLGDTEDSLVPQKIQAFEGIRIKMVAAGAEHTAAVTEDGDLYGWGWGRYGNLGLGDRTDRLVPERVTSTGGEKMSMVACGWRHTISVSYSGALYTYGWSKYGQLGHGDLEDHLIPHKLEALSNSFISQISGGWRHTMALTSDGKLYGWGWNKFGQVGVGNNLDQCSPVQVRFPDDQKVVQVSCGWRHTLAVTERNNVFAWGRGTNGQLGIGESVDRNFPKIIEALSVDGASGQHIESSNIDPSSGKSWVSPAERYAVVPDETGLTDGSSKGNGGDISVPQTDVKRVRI

[2] = target: the molecule itself; assay: cross-linking; DSP (4 mM, 30 min on ice) added to PBS extracts of transgenic uvr8-1 plants not exposed to UV-B; 10% SDS-PAGE without β-ME, blot with anti-UVR8
[3] = target: T2, GFP-UVR8 (wild type) in transgenic Arabidopsis uvr8-1 (Arabidopsis thaliana), Q9FN03; assay: SDS-PAGE with non-boiled samples; whole cell extracts of transgenic uvr8-1 plants not exposed to UV-B; SDS-loading buffer, not boiled, 7.5% gel, blot with anti-UVR8; conditions: remark: other sources report otherwise
T2 chain: T1 chain

[4] = target: T2, GFP-UVR8 (wild type) in transgenic …; assay: cross-linking; DSP (4 mM, 30 min on ice) added to PBS extracts of transgenic uvr8-1 plants not exposed to UV-B; 10% SDS-PAGE without β-ME, blot with anti-UVR8; conditions: remark: other sources report otherwise
[5] = target: the molecule itself; assay: SEC; purified proteins not exposed to UV-B; Superdex 200 HR10/30, 50 mM Tris pH 7.5, 150 mM NaCl, 1 mM β-ME, 0.02% sodium azide, 4°C; dimer to monomers
[6] = target: T3, GFP-UVR8 (wild type) transiently expressed in Nicotiana benthamiana (Arabidopsis thaliana), Q9FN03; assay: SEC; GFP fusions transiently expressed in N. benthamiana, not exposed to UV-B, immunoprecipitated with anti-GFP microbeads; eluates on Superdex 200, fractions blotted with anti-GFP; conditions: remark: other sources report otherwise
T3 chain: T1 chain

- stoichiometry N [1]: 2
B1: UV … LOCUS8 (UVR8), purified wild-type, Q9FN03 1-440 (natural protein)
chain: T1 chain

B2: GFP-UVR8^R146A in transgenic Arabidopsis uvr8-1 (natural protein, Arabidopsis thaliana, UniProt Q9FN03 1-440, looked up)
chain: T1 chain with R146A
notes: UV … LOCUS8 (UVR8), Arabidopsis thaliana; Sub-cloned into pEZR(K)L-C downstream of eGFP; also called line 9; source: transgenic Arabidopsis uvr8-1 plants (CaMV 35S promoter), in whole cell extract; not shown: eGFP, N-terminal, kept
- stoichiometry N [2]: 2

- stoichiometry N [3]: 2
- stoichiometry N [4]: 2
B3: GFP-UVR8 (wild type) in transgenic Arabidopsis uvr8-1, Q9FN03 1-440 (natural protein)
chain: T1 chain

B4: UVR8^R146A, purified (natural protein, Arabidopsis thaliana, UniProt Q9FN03 1-440, looked up)
chain: T1 chain with R146A
notes: UV … LOCUS8 (UVR8), Arabidopsis thaliana; source: E. coli, purified as described previously (Christie et al., 2012)
- stoichiometry N [5]: 2

- stoichiometry N [6]: 2
B5: GFP-UVR8 (wild type) transiently expressed in Nicotiana benthamiana, Q9FN03 1-440 (natural protein)
chain: T1 chain

B6: UVR8^R286K, purified (natural protein, Arabidopsis thaliana, UniProt Q9FN03 1-440, looked up)
chain: T1 chain with R286K
notes: as for B4
- stoichiometry N [5]: 2

B7: GFP-UVR8^R286K in transgenic Arabidopsis uvr8-1 (natural protein, Arabidopsis thaliana, UniProt Q9FN03 1-440, looked up)
chain: T1 chain with R286K
notes: UV … LOCUS8 (UVR8), Arabidopsis thaliana; Sub-cloned into pEZR(K)L-C downstream of eGFP; also called line 2-3; source: transgenic Arabidopsis uvr8-1 plants (CaMV 35S promoter), in whole cell extract; not shown: eGFP, N-terminal, kept
- stoichiometry N [2]: 2
